Data from US9688764B2, “Methods of treating breast cancer by administering anti-human prolactin receptor (PRLR) antibodies” (REGENERON PHARMACEUTICALS, INC., priority 2013, dated 2017).

Columns and labels:
[1] = target: T1, hPRLR.mFc (soluble dimeric human PRLR) (Homo sapiens, UniProt P16471); test: Surface plasmon resonance (Biacore T200), mAb-capture format; format: binding; settings: antibody-capture format, analyte hPRLR.mFc
T1 construct: dimeric (hPRLR.mFc)
Experimental: (§1) Antibodies, expressed as human IgG1 Fc “[…]” designations), were captured onto an anti-human Fc sensor surface (mAb-capture format), and soluble monomeric (hPRLR.mmh; SEQ ID NO:401, or macaca fascicularis (mf) PRLR.mmh; SEQ ID NO:403) or dimeric (hPRLR.mFc; SEQ ID NO:402) PRLR protein was injected over the sensor surface. Measurements were conducted on a T200 Biacore instrument. Kinetic association (ka) and dissociation (kd) rate constants were determined by processing and fitting the data to a 1:1 binding model using Scrubber 2.0 curve fitting software.

[2] = target: T2, hPRLR.mmh (soluble monomeric human PRLR) (Homo sapiens, UniProt P16471); test: as above; format: binding; settings: antibody-capture format, analyte hPRLR.mmh
T2 construct: soluble monomeric (hPRLR.mmh); mmh (myc-myc-hexahistidine)
T2 sequence (P16471 with tags, fused parts or gaps): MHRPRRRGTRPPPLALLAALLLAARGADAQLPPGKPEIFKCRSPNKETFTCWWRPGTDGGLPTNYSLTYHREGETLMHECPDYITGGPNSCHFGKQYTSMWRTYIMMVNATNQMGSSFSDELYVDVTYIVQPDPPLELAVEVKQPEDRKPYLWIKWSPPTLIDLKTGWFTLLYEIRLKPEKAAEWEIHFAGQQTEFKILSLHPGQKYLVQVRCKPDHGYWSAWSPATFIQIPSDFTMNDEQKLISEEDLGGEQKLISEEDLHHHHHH
Experimental: as §1

[3] = target: mfPRLR.mmh (monomeric macaca fascicularis PRLR); test: as above; format: binding; settings: antibody-capture format, analyte mfPRLR.mmh
Sequence of mfPRLR.mmh (monomeric macaca fascicularis PRLR) (as listed by the source): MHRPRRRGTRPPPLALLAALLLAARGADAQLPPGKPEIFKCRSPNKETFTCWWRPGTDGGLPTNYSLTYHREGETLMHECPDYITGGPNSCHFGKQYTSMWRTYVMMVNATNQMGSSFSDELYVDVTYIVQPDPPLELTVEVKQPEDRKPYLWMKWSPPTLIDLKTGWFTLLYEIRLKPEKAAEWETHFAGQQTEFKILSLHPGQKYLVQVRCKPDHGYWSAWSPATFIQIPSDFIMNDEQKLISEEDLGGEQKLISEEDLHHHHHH
Experimental: as §1

HEK293/mfPRLR = test: FACS cell surface binding; set-up: species or system macaca fascicularis
Sequence of HEK293/mfPRLR (as listed by the source): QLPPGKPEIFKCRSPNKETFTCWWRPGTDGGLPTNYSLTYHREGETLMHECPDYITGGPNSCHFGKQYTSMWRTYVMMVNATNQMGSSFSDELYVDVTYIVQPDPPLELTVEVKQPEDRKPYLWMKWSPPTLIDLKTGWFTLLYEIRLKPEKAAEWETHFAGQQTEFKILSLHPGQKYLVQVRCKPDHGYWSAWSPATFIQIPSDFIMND
Experimental: The ability of anti-PRLR antibodies to selectively bind PRLR expressing cell lines was next determined. Human, monkey macaca fascicularis, and mouse PRLR constructs with an HA tag were stably introduced into HEK293 cells via Lipofectamine 2000-mediated transfection methodology. Transfectants (HEK293/hPRLR, HEK293/mfPRLR and HEK293/mPRLR) were selected for at least 2 weeks in complete growth media plus G418.
Cell surface expression of PRLR on 293/hPRLR cells was assessed via FACS analysis. Briefly, 1×10^5 cells were incubated with 10 μg/ml of Control antibody I, or an isotype control for 30 min on ice in antibody dilution buffer. Following two washes with antibody dilution buffer, cells were incubated with 10 μg/ml of PE conjugated anti-human secondary antibodies for 30 min on ice. Following two additional washes, samples were run on a Hypercyt® cytometer and analyzed in FORECYT™ (IntelliCyt, Albuquerque, N. Mex.). The mean fluorescence intensities (MFI) were expressed as fold change above isotype control levels (background). FACS binding confirmed that Control I selectively bound to 293/hPRLR expressing cells with MFIs that were 30 fold above background (isotype ctrl) levels and less than 2 fold binding on parental cells.
Next, the anti-PRLR antibodies of the present invention were tested via FACS for selective binding to the engineered overexpressing PRLR HEK293 cell lines, as well as to non-expressing HEK293 cells and a native PRLR expressing cell line (T47D).

[4] = target: T3, PRLR-expressing cells (T47D) (Homo sapiens, UniProt P16471); test: Antibody binding and internalization by PRLR-expressing cells (imaging); format: cell-based; settings: [mAb] (0.67 nM); for % Internalization relative to Control I: alexa488 intensity in intracellular vesicles, 1 h at 37° C.; for % Total Binding relative to Control I: whole cell alexa488 intensity at 37° C.
T3 construct: a native PRLR expressing cell line (T47D); endogenous in cells; host or cells: T47D
T3 sequence (P16471 25-622): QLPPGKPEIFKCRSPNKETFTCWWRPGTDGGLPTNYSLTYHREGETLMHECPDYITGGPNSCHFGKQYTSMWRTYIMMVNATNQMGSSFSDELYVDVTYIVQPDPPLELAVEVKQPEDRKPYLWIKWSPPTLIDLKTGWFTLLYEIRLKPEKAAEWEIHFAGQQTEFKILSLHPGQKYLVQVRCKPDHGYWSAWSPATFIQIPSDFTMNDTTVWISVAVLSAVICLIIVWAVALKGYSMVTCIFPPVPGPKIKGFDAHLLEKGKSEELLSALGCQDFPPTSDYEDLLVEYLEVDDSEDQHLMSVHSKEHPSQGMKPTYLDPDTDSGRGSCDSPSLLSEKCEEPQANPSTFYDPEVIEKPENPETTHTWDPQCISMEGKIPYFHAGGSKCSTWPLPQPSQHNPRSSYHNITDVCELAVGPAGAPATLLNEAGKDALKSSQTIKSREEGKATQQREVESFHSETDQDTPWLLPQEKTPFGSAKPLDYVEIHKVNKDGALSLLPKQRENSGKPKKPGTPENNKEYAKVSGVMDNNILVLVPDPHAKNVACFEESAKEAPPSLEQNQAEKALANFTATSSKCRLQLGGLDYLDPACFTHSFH
Experimental: In this Example, the internalization of anti-PRLR antibodies by PRLR-expressing cells (T47D) was assessed. Briefly, 20,000 T47D cells were seeded in collagen coated 96 well plates. […] Cells were then incubated with alexa488 conjugated anti-hFc Fab secondary antibodies for 30 minutes on ice followed by two additional PBS washes. Antibodies were allowed to internalize for 1 h at 37° C. in internalization buffer (PBS+2% FBS) or remained at 4° C. Cells were fixed in 4% formaldehyde, nuclei were stained with DRAQ5 (Cell signaling), and images were acquired on the ImageXpress micro XL (Molecular Devices). Whole cell alexa488 intensity at 37° C. (Binding) and the alexa488 intensity in the intracellular vesicles at 37° C. (Internalization) were determined via Columbus image analysis software (PerkinElmer).

T1 sequence (P16471 with tags, fused parts or gaps): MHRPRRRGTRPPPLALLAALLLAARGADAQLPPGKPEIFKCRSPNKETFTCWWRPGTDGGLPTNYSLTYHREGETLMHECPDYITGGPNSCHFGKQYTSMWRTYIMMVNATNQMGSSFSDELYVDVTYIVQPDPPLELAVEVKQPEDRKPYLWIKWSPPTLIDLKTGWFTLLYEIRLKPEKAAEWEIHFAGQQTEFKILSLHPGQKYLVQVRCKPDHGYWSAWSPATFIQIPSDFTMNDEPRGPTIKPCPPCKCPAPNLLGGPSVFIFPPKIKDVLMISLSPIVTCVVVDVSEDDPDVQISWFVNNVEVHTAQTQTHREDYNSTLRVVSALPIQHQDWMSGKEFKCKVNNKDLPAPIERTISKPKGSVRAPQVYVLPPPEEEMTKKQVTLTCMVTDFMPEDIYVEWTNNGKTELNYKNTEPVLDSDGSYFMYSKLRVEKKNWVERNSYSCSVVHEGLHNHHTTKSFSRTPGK

| Molecule | Kd ([1]; 25° C.) | T½ ([1]; 25° C.) | Kd ([1]; 37° C.) | T½ ([1]; 37° C.) | Kd ([2]; 25° C.) | T½ ([2]; 25° C.) | Kd ([2]; 37° C.) | T½ ([2]; 37° C.) | Kd ([3]; 25° C.) | T½ ([3]; 25° C.) | Kd ([3]; 37° C.) | T½ ([3]; 37° C.) | FACS Cell Binding (Fold Above Background) (HEK293/mfPRLR) | % Internalization relative to Control I [4] | % Total Binding relative to Control I [4] |
| --- | --- | --- | --- | --- | --- | --- | --- | --- | --- | --- | --- | --- | --- | --- | --- |
| H1H6793P: anti-PRLR antibody, human IgG1 Fc; HCVR/LCVR SEQ ID NOs 146/154 (antibody, V domains shown, human IgG1 Fc) VH: EVQLVESGGGLVQPGGSLRLSCAASGFSFSIYAMSWFRQAPGKGLEWVSAINGRGDGTHYADSVKGRFTISRDNSKTTLYLQMSSLRAEDTAVYYCAKPVMSTNGFDIWGQGTMVTVSS VL: DIQMTQSPSTLSASVGDRVTITCRASQSISSWLAWYQLKPGKAPKLLIYKASNLESGVPSRFSGSGSGTEFTLTISSLQPDDFATYYCQQYNIYWTFGQGTKVEIK | 0.331 nM | 153 min | 0.347 nM | 81 min | 1.41 nM | 35 min | 3.02 nM | 11 min | 2.22 nM | 29 min | 4.59 nM | 11 min | 32 Fold Above Background | 179.9% | 177.9% |
| H1H6790P: anti-PRLR antibody, human IgG1 Fc; HCVR/LCVR SEQ ID NOs 114/122 (antibody, V domains shown, human IgG1 Fc) VH: EVQLVESGGGLVQPGGSLRLSCAASGFTFSSYAMTWVRQAPGKGLEWVSAITGSVGNTYYADSVKGRFTISRDNSKNTLYLQMNSLGAEDTAEYYCAKGAGMTTNWYLDLWGRGTLVTVSS VL: DIVMTQSPDSLAVSLGARATINCKSSQSVLYSSNNQNYLTWYQQKPGQPPKLLIKWASTRESGVPDRFSGSGSGTDFTLTISSLQAEDVAVYYCQQYASSPYTFGQGTKLEIK | 0.192 nM | 111 min | 0.306 nM | 58 min | 1.41 nM | 14 min | 3.5 nM | 4 min | 2.04 nM | 15 min | 5.22 nM | 4 min | 24 Fold Above Background | 146.9% | 122.8% |
| H1H6785P: anti-PRLR antibody, human IgG1 Fc; HCVR/LCVR SEQ ID NOs 98/106 (antibody, V domains shown, human IgG1 Fc) VH: EVQLVESGGGLVQPGGSLRLSCAASGFTFSSYEMNWVRQAPGKGLEWISYISSRGGTIYYADSIKGRFTIYRDNARNSLYLQMNSLRAEDTAIYYCARLSGVDIFDIWGQGTMVTVSS VL: DIQMTQSPSSLSASVGDRVTITCRASQGISNYLAWYQQKPGKVPKLLIYFASTLQSGVPSRFSGGGSGTDFTLTISSLQPEDVATYYCQRYNSAPLTFGGGTKVEIK | 0.231 nM | 190 min | 0.256 nM | 99 min | 0.567 nM | 68 min | 1.14 nM | 24 min | 0.738 nM | 69 min | 1.52 nM | 26 min | 26 Fold Above Background | 169.1% | 168.0% |
| H1H6792P: anti-PRLR antibody, human IgG1 Fc; HCVR/LCVR SEQ ID NOs 130/138 (antibody, V domains shown, human IgG1 Fc) VH: EVQLVESGGGLVQPGRSLRLSCAASGFTLDDHAVHWVRQAPGKGLEWVSGISWNSVYIDYADSVKGRFTIFRDNAKNSLYLQMNSLRAEDTAFYYCARDIEGARDYWGQGTLVTVSS VL: DIQMTQSPSSLSASVGDRVTITCRASQGIRNDLGWYQQKPGKAPKRLIYAASSLQSGVPSRFSGSGYGTEFTLTISSLQPEDFAPYYCLQHNSYPLTFGGGTKVEIK | 0.313 nM | 122 min | 0.352 nM | 66 min | 2.45 nM | 15 min | 5.27 nM | 5 min | 4.17 nM | 12 min | 9.37 nM | 4 min | 28 Fold Above Background | 155.9% | 110.6% |
| H1H6797P: anti-PRLR antibody, human IgG1 Fc; HCVR/LCVR SEQ ID NOs 178/186 (antibody, V domains shown, human IgG1 Fc) VH: EVQLVESGGGLVQPGGSLRLSCIVSGFTFSGSWMSWVRQLPGKGLEWVANIKEDGSDSYYVDSVEGRFTISRDNAKSSLYLQMNSLRVDDTAVYFCARARTVPLHYWGQGTLVTVSS VL: DIQMTQSPSTLSASVGDRVTITCRASQSINIWLAWYQQKPGKAPKLLIYRASYLESGVPSSFAGGGSGTEFTLTISSLQPDDFGTYYCQHYNSYPFTFGQGTKLEIK | 0.122 nM | 97 min | 0.0691 nM | 93 min | 1.73 nM | 6 min | 6.37 nM | 1 min | 3.12 nM | 6 min | 9.9 nM | 1 min | 25 Fold Above Background | 145.2% | 151.2% |
| H1H6795P: anti-PRLR antibody, human IgG1 Fc; HCVR/LCVR SEQ ID NOs 162/170 (antibody, V domains shown, human IgG1 Fc) VH: QVQLVQSGAEVKKPGASVKVSCKASGYTFGTSGITWVRQAPGQGLEWMGWSSAYNGKTDYAQKFQDRVTMTTDTSTTTGYMEMRSLTSDDTAVYYCTTVVRRPFDFWGQGTLVTVSS VL: DIQMTQSPSSLSASVGDRVTITCRASQDINNFLAWFQQKPGKAPKSLIYAASSLQSGVPSKFSGGGSGTDFALTISSLQPEDFATYYCQQYSSYPITFGQGTRLEIK | 0.0545 nM | 137 min | 0.0402 nM | 149 min | 1.52 nM | 7 min | 3.81 nM | 2 min | 2.33 nM | 6 min | 6.16 nM | 2 min | 22 Fold Above Background | 150.7% | 123.4% |
